# According to patent US20150322128A1 (Sanofi, published 2015):
# Where a chain is given by its changes, count along the chain named. Numbered stars: 1 amine (or outer) side, 2 acyl side, 3 side chain; on linkers, the order of the positions; unused ones are H or OH. Square brackets hold non-standard residues; d marks the D form. Side chains are listed from the residue outwards. Ends that are not written are not given here. * marks the point of attachment. γGlu = O=C(O)[C@H](CCC(=O)[*:2])N[*:1]; Stearoyl = CCCCCCCCCCCCCCCCCC(=O)*; Palmitoyl = CCCCCCCCCCCCCCCC(=O)*; Aib = CC(C)(N)C(=O)O
# B1: SEQ ID NO: 12 (peptide)
# peptide: HXQGTFTSDLSKQKDEEAARLFIEWLXAXGPSSGAPPPS
# modifications: D-Ser at 2; Lys 14 side chain K(γE-γE-x53) = (S)-4-Carboxy-4-((S)-4-carboxy-4-hexadecanoylamino-butyrylamino)-butyryl-; Aib at 27; D-Ala at 29; C-terminal amide
# B2: SEQ ID NO: 22 (peptide)
# peptide: B1 peptide with X29G
# modifications: D-Ser at 2; Lys 14 side chain K(AEEAc-AEEAc-AEEAc-x70) = [2-(2-{2-[2-(2-{2-[2-(2-Octadecanoylamino-ethoxy)-ethoxy]-acetylamino}-ethoxy)-ethoxy]-acetylamino}-ethoxy)-ethoxy]-acetyl-; Aib at 27; C-terminal amide
# B3: SEQ ID NO: 20 (peptide)
# peptide: B1 peptide with X29G
# modifications: D-Ser at 2; Lys 14 side chain K(AEEAc-AEEAc- E-x53) = (2-{2-[2-(2-{2-[(4S)-4-Carboxy-4-hexadecanoylamino-butyrylamino]-ethoxy}-ethoxy)-acetylamino]-ethoxy}-ethoxy)-acetyl; Aib at 27; C-terminal amide
# B4: SEQ ID NO: 18 (peptide)
# peptide: B1 peptide with A28S, X29T
# modifications: D-Ser at 2; Lys 14 side chain K(γE-γE-x53) = (S)-4-Carboxy-4-((S)-4-carboxy-4-hexadecanoylamino-butyrylamino)-butyryl-; Aib at 27; C-terminal amide
# B5: SEQ ID NO: 15 (peptide)
# peptide: B1 peptide with A28S, X29G
# modifications: D-Ser at 2; Lys 14 side chain K(γE-γE-x53) = (S)-4-Carboxy-4-((S)-4-carboxy-4-hexadecanoylamino-butyrylamino)-butyryl-; Aib at 27; C-terminal amide
# B6: SEQ ID NO: 25 (peptide)
# peptide: B1 peptide with A28K
# modifications: D-Ser at 2; Lys 14 side chain K(γE-x70) = (S)-4-Carboxy-4-octadecanoylamino-butyryl-; Aib at 27; D-Ala at 29; C-terminal amide
# B7: SEQ ID NO: 21 (peptide)
# peptide: B1 peptide with X29G
# modifications: D-Ser at 2; Lys 14 side chain K(AEEAc-AEEAc- E-x70) = (2-{2-[2-(2-{2-[(4S)-4-Carboxy-4-octadecanoylamino-butyrylamino]-ethoxy}-ethoxy)-acetylamino]-ethoxy}-ethoxy)-acetyl; Aib at 27; C-terminal amide
# B8: SEQ ID NO: 24 (peptide)
# peptide: B1 peptide with A28K
# modifications: D-Ser at 2; Lys 14 side chain K(γE-γE-x53) = (S)-4-Carboxy-4-((S)-4-carboxy-4-hexadecanoylamino-butyrylamino)-butyryl-; Aib at 27; D-Ala at 29; C-terminal amide
# B9: SEQ ID NO: 10 (peptide)
# peptide: H[dS]QGTFTSDLSKQK([γGlu-Stearoyl])EEEAVRLFIEWL[Aib]AGGPSSGAPPPS-NH2
# modifications: N-terminus assumed
# SMILES: CCCCCCCCCCCCCCCCCC(=O)N[C@@H](CCC(=O)NCCCC[C@H](NC(=O)[C@H](CCC(N)=O)NC(=O)[C@H](CCCCN)NC(=O)[C@H](CO)NC(=O)[C@H](CC(C)C)NC(=O)[C@H](CC(=O)O)NC(=O)[C@H](CO)NC(=O)[C@@H](NC(=O)[C@H](Cc1ccccc1)NC(=O)[C@@H](NC(=O)CNC(=O)[C@H](CCC(N)=O)NC(=O)[C@@H](CO)NC(=O)[C@@H](N)Cc1c[nH]cn1)[C@@H](C)O)[C@@H](C)O)C(=O)N[C@@H](CCC(=O)O)C(=O)N[C@@H](CCC(=O)O)C(=O)N[C@@H](CCC(=O)O)C(=O)N[C@@H](C)C(=O)N[C@H](C(=O)N[C@@H](CCCNC(=N)N)C(=O)N[C@@H](CC(C)C)C(=O)N[C@@H](Cc1ccccc1)C(=O)N[C@H](C(=O)N[C@@H](CCC(=O)O)C(=O)N[C@@H](Cc1c[nH]c2ccccc12)C(=O)N[C@@H](CC(C)C)C(=O)NC(C)(C)C(=O)N[C@@H](C)C(=O)NCC(=O)NCC(=O)N1CCC[C@H]1C(=O)N[C@@H](CO)C(=O)N[C@@H](CO)C(=O)NCC(=O)N[C@@H](C)C(=O)N1CCC[C@H]1C(=O)N1CCC[C@H]1C(=O)N1CCC[C@H]1C(=O)N[C@@H](CO)C(N)=O)[C@@H](C)CC)C(C)C)C(=O)O
# B10: SEQ ID NO: 17 (peptide)
# peptide: H[dS]QGTFTSDLSKQK([γGlu-γGlu-Palmitoyl])DEEAVRLFIEWL[Aib]AGGPSSGAPPPS-NH2
# modifications: N-terminus assumed
# SMILES: CCCCCCCCCCCCCCCC(=O)N[C@@H](CCC(=O)N[C@@H](CCC(=O)NCCCC[C@H](NC(=O)[C@H](CCC(N)=O)NC(=O)[C@H](CCCCN)NC(=O)[C@H](CO)NC(=O)[C@H](CC(C)C)NC(=O)[C@H](CC(=O)O)NC(=O)[C@H](CO)NC(=O)[C@@H](NC(=O)[C@H](Cc1ccccc1)NC(=O)[C@@H](NC(=O)CNC(=O)[C@H](CCC(N)=O)NC(=O)[C@@H](CO)NC(=O)[C@@H](N)Cc1c[nH]cn1)[C@@H](C)O)[C@@H](C)O)C(=O)N[C@@H](CC(=O)O)C(=O)N[C@@H](CCC(=O)O)C(=O)N[C@@H](CCC(=O)O)C(=O)N[C@@H](C)C(=O)N[C@H](C(=O)N[C@@H](CCCNC(=N)N)C(=O)N[C@@H](CC(C)C)C(=O)N[C@@H](Cc1ccccc1)C(=O)N[C@H](C(=O)N[C@@H](CCC(=O)O)C(=O)N[C@@H](Cc1c[nH]c2ccccc12)C(=O)N[C@@H](CC(C)C)C(=O)NC(C)(C)C(=O)N[C@@H](C)C(=O)NCC(=O)NCC(=O)N1CCC[C@H]1C(=O)N[C@@H](CO)C(=O)N[C@@H](CO)C(=O)NCC(=O)N[C@@H](C)C(=O)N1CCC[C@H]1C(=O)N1CCC[C@H]1C(=O)N1CCC[C@H]1C(=O)N[C@@H](CO)C(N)=O)[C@@H](C)CC)C(C)C)C(=O)O)C(=O)O
# B11: SEQ ID NO: 8 (peptide)
# peptide: H[dS]HGTFTSDLSKQK([γGlu-Stearoyl])DEEAARLFIEWL[Aib]AGGPSSGAPPPS-NH2
# modifications: N-terminus assumed
# SMILES: CCCCCCCCCCCCCCCCCC(=O)N[C@@H](CCC(=O)NCCCC[C@H](NC(=O)[C@H](CCC(N)=O)NC(=O)[C@H](CCCCN)NC(=O)[C@H](CO)NC(=O)[C@H](CC(C)C)NC(=O)[C@H](CC(=O)O)NC(=O)[C@H](CO)NC(=O)[C@@H](NC(=O)[C@H](Cc1ccccc1)NC(=O)[C@@H](NC(=O)CNC(=O)[C@H](Cc1c[nH]cn1)NC(=O)[C@@H](CO)NC(=O)[C@@H](N)Cc1c[nH]cn1)[C@@H](C)O)[C@@H](C)O)C(=O)N[C@@H](CC(=O)O)C(=O)N[C@@H](CCC(=O)O)C(=O)N[C@@H](CCC(=O)O)C(=O)N[C@@H](C)C(=O)N[C@@H](C)C(=O)N[C@@H](CCCNC(=N)N)C(=O)N[C@@H](CC(C)C)C(=O)N[C@@H](Cc1ccccc1)C(=O)N[C@H](C(=O)N[C@@H](CCC(=O)O)C(=O)N[C@@H](Cc1c[nH]c2ccccc12)C(=O)N[C@@H](CC(C)C)C(=O)NC(C)(C)C(=O)N[C@@H](C)C(=O)NCC(=O)NCC(=O)N1CCC[C@H]1C(=O)N[C@@H](CO)C(=O)N[C@@H](CO)C(=O)NCC(=O)N[C@@H](C)C(=O)N1CCC[C@H]1C(=O)N1CCC[C@H]1C(=O)N1CCC[C@H]1C(=O)N[C@@H](CO)C(N)=O)[C@@H](C)CC)C(=O)O
# B12: SEQ ID NO: 19 (peptide)
# peptide: B1 peptide with A28K, X29G
# modifications: D-Ser at 2; Lys 14 side chain K(γE-γE-x53) = (S)-4-Carboxy-4-((S)-4-carboxy-4-hexadecanoylamino-butyrylamino)-butyryl-; Aib at 27; C-terminal amide
# Biological target: T1, human GIP receptor (human, UniProt P48546 22-466)
# T1 sequence (looked up): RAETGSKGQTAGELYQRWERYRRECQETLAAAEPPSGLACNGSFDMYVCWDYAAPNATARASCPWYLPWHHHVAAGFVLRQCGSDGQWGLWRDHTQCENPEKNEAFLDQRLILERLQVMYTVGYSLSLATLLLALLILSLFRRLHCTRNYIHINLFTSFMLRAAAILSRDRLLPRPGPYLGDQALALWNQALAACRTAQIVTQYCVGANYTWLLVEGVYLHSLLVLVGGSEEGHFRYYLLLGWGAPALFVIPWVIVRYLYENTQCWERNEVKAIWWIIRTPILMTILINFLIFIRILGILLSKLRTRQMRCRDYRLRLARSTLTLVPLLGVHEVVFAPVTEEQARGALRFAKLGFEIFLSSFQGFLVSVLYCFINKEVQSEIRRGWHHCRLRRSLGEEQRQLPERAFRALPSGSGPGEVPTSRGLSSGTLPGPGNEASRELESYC
# Assay: cell-based or functional assay
row,Binder,EC50 hGIP-R
1,B1,336 pM
2,B2,4160 pM
3,B3,20200 pM
4,B4,27500 pM
5,B5,5500 pM
6,B6,8320 pM
7,B7,2450 pM
8,B8,14100 pM
9,H[dS]HGTFTSDLSKQK([γGlu-γGlu-Palmitoyl])DEEAARLFIEWL[Aib]K[dA]GPSSGAPPPS-NH2 [SEQ ID NO: 26],5530 pM
10,B9,982 pM
11,B10,7080 pM
12,B11,538 pM

# Biological target: human GLP-1 receptor (human, UniProt P43220 24-463)
# Assay: cell-based or functional assay
row,Binder,EC50 hGLP-1R
1,B1,2.8 pM
2,B2,1.8 pM
3,B3,4.3 pM
4,B4,3.6 pM
5,B5,1.8 pM
6,B6,2.1 pM
7,B12,2 pM
8,B7,1 pM
9,B8,2.4 pM
10,H[dS]HGTFTSDLSKQK([γGlu-γGlu-Palmitoyl])DEEAARLFIEWL[Aib]K[dA]GPSSGAPPPS-NH2 [SEQ ID NO: 26],2 pM
11,B9,6.5 pM
12,B10,2.4 pM
13,B11,1.8 pM

# Biological target: human glucagon receptor (human, UniProt P47871 26-477)
# Assay: cell-based or functional assay
# Sequence of human glucagon receptor (P47871 26-477): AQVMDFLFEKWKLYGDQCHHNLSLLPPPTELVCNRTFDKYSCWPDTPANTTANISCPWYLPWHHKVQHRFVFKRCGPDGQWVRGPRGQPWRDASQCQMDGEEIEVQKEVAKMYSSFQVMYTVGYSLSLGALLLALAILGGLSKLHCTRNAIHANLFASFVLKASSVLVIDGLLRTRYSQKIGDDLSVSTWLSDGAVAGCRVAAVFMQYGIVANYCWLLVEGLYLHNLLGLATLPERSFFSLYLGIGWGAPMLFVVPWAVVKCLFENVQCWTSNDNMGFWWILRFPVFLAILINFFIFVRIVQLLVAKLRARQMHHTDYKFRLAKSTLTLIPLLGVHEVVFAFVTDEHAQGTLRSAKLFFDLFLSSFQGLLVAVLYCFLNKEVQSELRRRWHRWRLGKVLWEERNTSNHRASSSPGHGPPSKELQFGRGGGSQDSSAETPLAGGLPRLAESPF
row,Binder,EC50 hGlucagon-R
1,B1,66 pM
2,B2,6.4 pM
3,B3,88.4 pM
4,B4,10.3 pM
5,B5,12.3 pM
6,B6,43.2 pM
7,B7,9.1 pM
8,B8,76.5 pM
9,H[dS]HGTFTSDLSKQK([γGlu-γGlu-Palmitoyl])DEEAARLFIEWL[Aib]K[dA]GPSSGAPPPS-NH2 [SEQ ID NO: 26],40.6 pM
10,B9,140 pM
11,B10,47.1 pM
12,B11,4.8 pM
